Measured values from US20140087995A1 (published 2014).
Numbered stars: 1 amine (or outer) side, 2 acyl side, 3 side chain; on linkers, the order of the positions; unused ones are H or OH. Bridge positions count the residues as written; N and C are the ends. * marks the point of attachment. C20 diacid = O=C(O)CCCCCCCCCCCCCCCCCCC(=O)*; γGlu = O=C(O)[C@H](CCC(=O)[*:2])N[*:1]

T1: human calcitonin receptor (human, UniProt P30988 25-474)
T1 construct: whole, on cells; Membranes from stably transfected BHK cells; also called hCTR; hCT
T1 sequence (looked up): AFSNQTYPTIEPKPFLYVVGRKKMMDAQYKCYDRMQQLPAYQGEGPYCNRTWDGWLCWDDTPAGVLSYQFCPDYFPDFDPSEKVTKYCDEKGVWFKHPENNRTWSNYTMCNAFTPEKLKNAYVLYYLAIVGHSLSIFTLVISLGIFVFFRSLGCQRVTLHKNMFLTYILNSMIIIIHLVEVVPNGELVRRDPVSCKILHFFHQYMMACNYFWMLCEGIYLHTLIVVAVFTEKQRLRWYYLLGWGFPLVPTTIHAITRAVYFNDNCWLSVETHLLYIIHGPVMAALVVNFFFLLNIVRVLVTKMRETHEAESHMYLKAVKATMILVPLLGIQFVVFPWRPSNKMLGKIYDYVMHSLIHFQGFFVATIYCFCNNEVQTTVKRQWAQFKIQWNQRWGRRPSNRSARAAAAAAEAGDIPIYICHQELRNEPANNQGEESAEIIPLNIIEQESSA

T2: rat amylin receptor (rat calcitonin receptor + rat RAMP 3) (rat, UniProt P32214 25-516; Q9JJ73 23-147)
T2 construct: whole, on cells; Membranes prepared from transiently transfected BHK tk'ts 13 cells; also called rAmylin-R; rat amylin 3(a) receptor
T2 sequence (looked up) 1: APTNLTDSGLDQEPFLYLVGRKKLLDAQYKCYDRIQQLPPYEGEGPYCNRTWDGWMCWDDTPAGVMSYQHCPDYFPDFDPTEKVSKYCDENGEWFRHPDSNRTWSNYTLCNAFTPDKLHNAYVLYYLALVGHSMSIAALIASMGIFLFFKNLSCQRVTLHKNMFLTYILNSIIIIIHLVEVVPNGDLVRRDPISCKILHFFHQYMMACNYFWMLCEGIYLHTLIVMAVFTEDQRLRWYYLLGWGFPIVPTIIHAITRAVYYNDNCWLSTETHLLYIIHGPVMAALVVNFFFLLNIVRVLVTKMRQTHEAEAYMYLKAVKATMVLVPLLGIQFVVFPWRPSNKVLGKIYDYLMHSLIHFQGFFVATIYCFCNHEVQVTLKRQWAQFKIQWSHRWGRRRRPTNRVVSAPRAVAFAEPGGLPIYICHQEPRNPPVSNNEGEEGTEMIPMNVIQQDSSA
T2 sequence (looked up) 2: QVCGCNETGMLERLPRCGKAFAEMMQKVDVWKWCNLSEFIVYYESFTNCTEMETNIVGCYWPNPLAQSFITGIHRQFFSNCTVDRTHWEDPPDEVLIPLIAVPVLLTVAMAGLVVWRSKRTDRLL

T3: rat calcitonin receptor (rat, UniProt P32214 25-516)
T3 construct: whole, on cells; Membranes prepared from transiently transfected BHK tk'ts 13 cells; also called rCTR; rat calcitonin (a) receptor
T3 sequence (looked up): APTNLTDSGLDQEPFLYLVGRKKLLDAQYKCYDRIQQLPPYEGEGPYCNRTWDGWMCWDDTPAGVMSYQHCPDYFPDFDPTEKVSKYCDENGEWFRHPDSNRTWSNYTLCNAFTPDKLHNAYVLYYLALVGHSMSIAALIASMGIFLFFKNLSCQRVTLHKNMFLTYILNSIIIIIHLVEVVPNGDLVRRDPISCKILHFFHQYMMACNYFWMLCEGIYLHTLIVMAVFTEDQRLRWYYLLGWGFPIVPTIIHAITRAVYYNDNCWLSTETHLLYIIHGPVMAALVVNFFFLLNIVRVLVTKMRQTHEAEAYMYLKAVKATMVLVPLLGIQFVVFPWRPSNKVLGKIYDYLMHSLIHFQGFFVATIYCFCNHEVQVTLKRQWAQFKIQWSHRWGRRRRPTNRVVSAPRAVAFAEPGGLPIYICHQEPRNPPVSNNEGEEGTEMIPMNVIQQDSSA


Columns and labels:
[1] = target: T1, human calcitonin receptor; experiment: ratio of IC50 on human calcitonin receptor to IC50 on human amylin receptor
How it was run: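 Competition binding by SPA with cell membranes (35 ng/μL) and SPA beads in 50 mM Hepes pH 7.4 with 1 mM CaCl2, 5 mM MgCl2, 0.1% OA and 0.02% Tween20. Incubated 120 min at 25 °C with shaking, then counted.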

[2] = target: T2, rat amylin receptor (rat calcitonin …); experiment: SPA competition vs 125I-rat amylin, membranes (Assay VI)
[3] = target: T3, rat calcitonin receptor; experiment: SPA competition vs 125I-calcitonin, membranes (Assay VIII)
[4] = target: T3, rat calcitonin receptor; experiment: ratio of IC50 on rat calcitonin receptor to IC50 on rat amylin receptor

| Binder | Ratio hCT/hAmylin binding [1] | IC50 [2] [nM] | IC50 [3] [nM] | Ratio rCT/rAmylin binding [4] |
| --- | --- | --- | --- | --- |
| {C20 diacid-γGlu}-GRCNTATCATQRLAHFLRHSSPNFGAIPSSTNVGHNTY-NH2 (disulfide 3-8; SMILES CC[C@H](C)[C@H](NC(=O)[C@H](C)NC(=O)CNC(=O)[C@H](Cc1ccccc1)NC(=O)[C@H](CC(N)=O)NC(=O)[C@@H]1CCCN1C(=O)[C@H](CO)NC(=O)[C@H](CO)NC(=O)[C@H](Cc1c[nH]cn1)NC(=O)[C@H](CCCNC(=N)N)NC(=O)[C@H](CC(C)C)NC(=O)[C@H](Cc1ccccc1)NC(=O)[C@H](Cc1c[nH]cn1)NC(=O)[C@H](C)NC(=O)[C@H](CC(C)C)NC(=O)[C@H](CCCNC(=N)N)NC(=O)[C@H](CCC(N)=O)NC(=O)[C@@H](NC(=O)[C@H](C)NC(=O)[C@@H]1CSSC[C@H](NC(=O)[C@H](CCCNC(=N)N)NC(=O)CNC(=O)CC[C@H](NC(=O)CCCCCCCCCCCCCCCCCCC(=O)O)C(=O)O)C(=O)N[C@@H](CC(N)=O)C(=O)N[C@@H]([C@@H](C)O)C(=O)N[C@@H](C)C(=O)N[C@@H]([C@@H](C)O)C(=O)N1)[C@@H](C)O)C(=O)N1CCC[C@H]1C(=O)N[C@@H](CO)C(=O)N[C@@H](CO)C(=O)N[C@H](C(=O)N[C@@H](CC(N)=O)C(=O)N[C@H](C(=O)NCC(=O)N[C@@H](Cc1c[nH]cn1)C(=O)N[C@@H](CC(N)=O)C(=O)N[C@H](C(=O)N[C@@H](Cc1ccc(O)cc1)C(N)=O)[C@@H](C)O)C(C)C)[C@@H](C)O, also called compound 100) | 65.3 | 11.2 | 311 | 27.7 |
| {C20 diacid-γGlu}-GRCNTATCATQRLAAFLRHSSPNFGAIPSSTNVGPNTY-NH2 (disulfide 3-8) | 26.5 | 0.436 | 56.3 | 129 |
| {C20 diacid-γGlu}-GRCNTATCATQRLAAFLRHSSPNFGAIPSSTNVGHNTY-NH2 (disulfide 3-8; SMILES CC[C@H](C)[C@H](NC(=O)[C@H](C)NC(=O)CNC(=O)[C@H](Cc1ccccc1)NC(=O)[C@H](CC(N)=O)NC(=O)[C@@H]1CCCN1C(=O)[C@H](CO)NC(=O)[C@H](CO)NC(=O)[C@H](Cc1c[nH]cn1)NC(=O)[C@H](CCCNC(=N)N)NC(=O)[C@H](CC(C)C)NC(=O)[C@H](Cc1ccccc1)NC(=O)[C@H](C)NC(=O)[C@H](C)NC(=O)[C@H](CC(C)C)NC(=O)[C@H](CCCNC(=N)N)NC(=O)[C@H](CCC(N)=O)NC(=O)[C@@H](NC(=O)[C@H](C)NC(=O)[C@@H]1CSSC[C@H](NC(=O)[C@H](CCCNC(=N)N)NC(=O)CNC(=O)CC[C@H](NC(=O)CCCCCCCCCCCCCCCCCCC(=O)O)C(=O)O)C(=O)N[C@@H](CC(N)=O)C(=O)N[C@@H]([C@@H](C)O)C(=O)N[C@@H](C)C(=O)N[C@@H]([C@@H](C)O)C(=O)N1)[C@@H](C)O)C(=O)N1CCC[C@H]1C(=O)N[C@@H](CO)C(=O)N[C@@H](CO)C(=O)N[C@H](C(=O)N[C@@H](CC(N)=O)C(=O)N[C@H](C(=O)NCC(=O)N[C@@H](Cc1c[nH]cn1)C(=O)N[C@@H](CC(N)=O)C(=O)N[C@H](C(=O)N[C@@H](Cc1ccc(O)cc1)C(N)=O)[C@@H](C)O)C(C)C)[C@@H](C)O) | 68.6 | 8.07 | 492 | 60.9 |
| {C20 diacid-γGlu}-GRCNTATCATQRLAHFLRHSSPNFGAIPSSTNVGPNTY-NH2 (disulfide 3-8; SMILES CC[C@H](C)[C@H](NC(=O)[C@H](C)NC(=O)CNC(=O)[C@H](Cc1ccccc1)NC(=O)[C@H](CC(N)=O)NC(=O)[C@@H]1CCCN1C(=O)[C@H](CO)NC(=O)[C@H](CO)NC(=O)[C@H](Cc1c[nH]cn1)NC(=O)[C@H](CCCNC(=N)N)NC(=O)[C@H](CC(C)C)NC(=O)[C@H](Cc1ccccc1)NC(=O)[C@H](Cc1c[nH]cn1)NC(=O)[C@H](C)NC(=O)[C@H](CC(C)C)NC(=O)[C@H](CCCNC(=N)N)NC(=O)[C@H](CCC(N)=O)NC(=O)[C@@H](NC(=O)[C@H](C)NC(=O)[C@@H]1CSSC[C@H](NC(=O)[C@H](CCCNC(=N)N)NC(=O)CNC(=O)CC[C@H](NC(=O)CCCCCCCCCCCCCCCCCCC(=O)O)C(=O)O)C(=O)N[C@@H](CC(N)=O)C(=O)N[C@@H]([C@@H](C)O)C(=O)N[C@@H](C)C(=O)N[C@@H]([C@@H](C)O)C(=O)N1)[C@@H](C)O)C(=O)N1CCC[C@H]1C(=O)N[C@@H](CO)C(=O)N[C@@H](CO)C(=O)N[C@H](C(=O)N[C@@H](CC(N)=O)C(=O)N[C@H](C(=O)NCC(=O)N1CCC[C@H]1C(=O)N[C@@H](CC(N)=O)C(=O)N[C@H](C(=O)N[C@@H](Cc1ccc(O)cc1)C(N)=O)[C@@H](C)O)C(C)C)[C@@H](C)O) | 36.2 | 0.674 | 65.9 | 97.7 |
| {C20 diacid-γGlu}-GRCNTATCATQRLAHFLRHSSPNFGAIPSSTNVGSNTY-NH2 (disulfide 3-8; SMILES CC[C@H](C)[C@H](NC(=O)[C@H](C)NC(=O)CNC(=O)[C@H](Cc1ccccc1)NC(=O)[C@H](CC(N)=O)NC(=O)[C@@H]1CCCN1C(=O)[C@H](CO)NC(=O)[C@H](CO)NC(=O)[C@H](Cc1c[nH]cn1)NC(=O)[C@H](CCCNC(=N)N)NC(=O)[C@H](CC(C)C)NC(=O)[C@H](Cc1ccccc1)NC(=O)[C@H](Cc1c[nH]cn1)NC(=O)[C@H](C)NC(=O)[C@H](CC(C)C)NC(=O)[C@H](CCCNC(=N)N)NC(=O)[C@H](CCC(N)=O)NC(=O)[C@@H](NC(=O)[C@H](C)NC(=O)[C@@H]1CSSC[C@H](NC(=O)[C@H](CCCNC(=N)N)NC(=O)CNC(=O)CC[C@H](NC(=O)CCCCCCCCCCCCCCCCCCC(=O)O)C(=O)O)C(=O)N[C@@H](CC(N)=O)C(=O)N[C@@H]([C@@H](C)O)C(=O)N[C@@H](C)C(=O)N[C@@H]([C@@H](C)O)C(=O)N1)[C@@H](C)O)C(=O)N1CCC[C@H]1C(=O)N[C@@H](CO)C(=O)N[C@@H](CO)C(=O)N[C@H](C(=O)N[C@@H](CC(N)=O)C(=O)N[C@H](C(=O)NCC(=O)N[C@@H](CO)C(=O)N[C@@H](CC(N)=O)C(=O)N[C@H](C(=O)N[C@@H](Cc1ccc(O)cc1)C(N)=O)[C@@H](C)O)C(C)C)[C@@H](C)O, also called compound 99) | 100 | 2.7 | 216 | 79.8 |
